These results are taken from paper PMC9372576, “Interaction of the gas vesicle proteins GvpA, GvpC, GvpN, and GvpO of Halobacterium salinarum” (Frontiers in Microbiology, 2022).

T1: GvpA fragment A44-76 (Halobacterium salinarum, UniProt P08958 44-76)
T1 construct: GvpA of Halobacterium salinarum, mainly helix alpha3; vector described in earlier work; source: Hfx. volcanii WR340 transformant, split-GFP fusion in living cells
T1 chain (looked up): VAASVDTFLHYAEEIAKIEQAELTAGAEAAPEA

T2: GvpA fused to NGFP or CGFP (Halobacterium salinarum, UniProt P08958 1-76)
T2 construct: the entire GvpA of the p-vac region of Halobacterium salinarum; gvpA reading frame; NGFP (mGFP2 up to aa 157) or CGFP (from aa 158) at the N- or C-terminus through a 14 aa (pJAS) or 16 aa (pWLfdx) linker; with GvpF and its variants CGFP stood at the C-terminus of GvpA (AC); also called NA; AN; source: Hfx. volcanii WR340 transformant, split-GFP fusion in living cells
T2 sequence (looked up): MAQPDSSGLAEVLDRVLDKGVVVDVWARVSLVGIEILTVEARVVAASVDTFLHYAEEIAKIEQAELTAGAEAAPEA

T3: GvpC fused to NGFP or CGFP (Halobacterium salinarum, UniProt P24574 1-382)
T3 construct: GvpC of the p-vac region of Halobacterium salinarum; gvpC amplified from the p-vac region; GFP fragment at the N- or C-terminus, 14 or 16 aa linker; source: Hfx. volcanii WR340 transformant, split-GFP fusion in living cells
T3 sequence (looked up): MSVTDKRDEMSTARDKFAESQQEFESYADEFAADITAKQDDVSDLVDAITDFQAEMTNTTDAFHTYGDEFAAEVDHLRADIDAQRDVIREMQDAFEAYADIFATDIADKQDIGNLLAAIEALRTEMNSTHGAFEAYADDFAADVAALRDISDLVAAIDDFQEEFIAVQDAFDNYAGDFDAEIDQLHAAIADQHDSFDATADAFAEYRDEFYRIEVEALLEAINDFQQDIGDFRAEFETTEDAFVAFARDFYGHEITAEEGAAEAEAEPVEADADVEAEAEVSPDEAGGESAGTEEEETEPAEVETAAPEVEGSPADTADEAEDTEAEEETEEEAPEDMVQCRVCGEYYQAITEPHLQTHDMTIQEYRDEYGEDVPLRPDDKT

T4: GvpN fused to NGFP or CGFP (Halobacterium salinarum, UniProt Q9HI16 1-347)
T4 construct: GvpN of the p-vac region of Halobacterium salinarum; gvpN amplified from the p-vac region; GFP fragment at the N- or C-terminus, 14 or 16 aa linker; source: Hfx. volcanii WR340 transformant, split-GFP fusion in living cells
T4 sequence (looked up): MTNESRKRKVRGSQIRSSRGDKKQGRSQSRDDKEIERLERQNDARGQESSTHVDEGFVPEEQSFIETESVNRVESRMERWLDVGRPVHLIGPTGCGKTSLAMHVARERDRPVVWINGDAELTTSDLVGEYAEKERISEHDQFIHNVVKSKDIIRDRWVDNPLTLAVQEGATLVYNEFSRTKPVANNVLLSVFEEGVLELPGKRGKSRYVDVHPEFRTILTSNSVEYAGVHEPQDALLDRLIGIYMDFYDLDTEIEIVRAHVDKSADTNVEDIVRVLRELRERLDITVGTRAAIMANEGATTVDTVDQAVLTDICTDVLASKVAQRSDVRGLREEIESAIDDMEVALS

B1: GvpA fragment A1-22 (domain or fragment, Halobacterium salinarum, UniProt P08958 1-22, looked up)
chain: MAQPDSSGLAEVLDRVLDKGVV
notes: GvpA of Halobacterium salinarum, the first 22 aa including alpha-helix 1; vector described in Winter et al., 2018 and Voelkner et al., 2020; source: Hfx. volcanii WR340 transformant, split-GFP fusion in living cells
B2: GvpA fragment A20-47 (domain or fragment, Halobacterium salinarum, UniProt P08958 20-47, looked up)
chain: GVVVDVWARVSLVGIEILTVEARVVAAS
notes: GvpA of Halobacterium salinarum, the two beta-sheets beta1-beta2; vector described in earlier work; source: Hfx. volcanii WR340 transformant, split-GFP fusion in living cells
B3: GvpC C-terminal fragment Cterm (domain or fragment, Halobacterium salinarum, UniProt P24574 329-382, looked up)
chain: ETEEEAPEDMVQCRVCGEYYQAITEPHLQTHDMTIQEYRDEYGEDVPLRPDDKT
notes: GvpC of Halobacterium salinarum, aa 329-382, the globular C-terminal domain with a zinc-finger motif; GFP fragment at the N- or C-terminus; source: Hfx. volcanii WR340 transformant, split-GFP fusion in living cells
B4: GvpO fused to NGFP or CGFP (natural protein, Halobacterium salinarum, UniProt O51968 1-119, looked up)
chain: MADPANDRSEREEGGEDDETPPASDGNPSPSANSFTLSNAQTRAREAAQDLLEHQFEGMIKAESNDEGWRTVVEVVERNAVPDTQDIIGRYEITLDGTGDVTGYELLERYRRGDMKEEL
notes: GvpO of the p-vac region of Halobacterium salinarum; gvpO amplified from the p-vac region; GFP fragment at the N- or C-terminus, 14 or 16 aa linker; source: Hfx. volcanii WR340 transformant, split-GFP fusion in living cells
B5: GvpA fragment A1-34 (domain or fragment, Halobacterium salinarum, UniProt P08958 1-34, looked up)
chain: MAQPDSSGLAEVLDRVLDKGVVVDVWARVSLVGI
notes: GvpA of Halobacterium salinarum, alpha1 plus beta-sheet 1; vector described in earlier work; source: Hfx. volcanii WR340 transformant, split-GFP fusion in living cells
B6: GvpF fused to NGFP or CGFP (natural protein, Halobacterium salinarum, UniProt Q9HI21 1-213, looked up)
chain: MTENLYTYGIIEQEDLELDVEGVAGAEQVYTVDYKTLSAVVSDIDTTDPERTDEDVEAHNNVLQEVLKHEEERTVVPMSFGMAFKSARTLKGVLRGARRALRSTLNDIEGTVELGVKILGPGDDTVPREEIQENVTDQLADLSINETENDLFTDRLIINKSYLVDFEKRDAFDSAIDDVEAEYDELTIQYTGPWPPYNFVDIHIGAEQQQGGR
notes: GvpF (wild type) of the p-vac region of Halobacterium salinarum; R213 is the very last aa; parent of the GvpF variants; also called Fwt; WT; source: Hfx. volcanii WR340 transformant, split-GFP fusion in living cells
B7: GvpA fragment A1-43 (domain or fragment, Halobacterium salinarum, UniProt P08958 1-43, looked up)
chain: MAQPDSSGLAEVLDRVLDKGVVVDVWARVSLVGIEILTVEARV
notes: GvpA of Halobacterium salinarum, alpha1-beta1-beta2; vector described in earlier work; source: Hfx. volcanii WR340 transformant, split-GFP fusion in living cells
B8: GvpC N-terminal fragment Nterm (domain or fragment, Halobacterium salinarum, UniProt P24574 10-130, looked up)
chain: MSTARDKFAESQQEFESYADEFAADITAKQDDVSDLVDAITDFQAEMTNTTDAFHTYGDEFAAEVDHLRADIDAQRDVIREMQDAFEAYADIFATDIADKQDIGNLLAAIEALRTEMNSTH
notes: GvpC of Halobacterium salinarum, amino acids 10-130, the first three alpha-helical repeats; GFP fragment at the N- or C-terminus; source: Hfx. volcanii WR340 transformant, split-GFP fusion in living cells

What all share (assay): split reporter (BiFC, NanoBiT); split-GFP (NGFP and CGFP of salt-stable mGFP2) in Hfx. volcanii transformants, 24 h 37 °C then 24 h 30 °C; relative fluorescence (rf) against the wild type; the highest of eight tag combinations is given
For the series “GvpA fragment A20-47”, the target named is B2. Conditions: partners not purified.
The series “GvpA fragment A1-43” addresses B7. The conditions noted are these: partners not purified.
A further series deals with T1, GvpA fragment A44-76. The conditions noted are these: partners not purified.
The series “GvpA fragment A1-34” concerns the target B5. Conditions: partners not purified.
Series [1] deals with the molecule itself.
Series [2] has as its target T2, GvpA fused to NGFP or CGFP. The conditions noted are these: partners not purified.
Series [3] has as its target T3, GvpC fused to NGFP or CGFP. Conditions: partners not purified.
The target of the series “GvpA fragment A1-22” is B1. The conditions noted are these: partners not purified.
The target in series [4] is T4, GvpN fused to NGFP or CGFP. The conditions noted are these: partners not purified.
The target in series [5] is B3. Conditions: partners not purified.

Consider B1, for which the “relative fluorescence (rf)” value in the series with GvpA fragment A20-47, in the series with GvpA fragment A1-43, in the series with GvpA fragment A44-76 and in the series with GvpA fragment A1-34 was not above 0.48 LAU/mm^2 in each case.

Turning to B2, the “relative fluorescence (rf)” value with GvpA fragment A44-76 is not above 0.48 LAU/mm^2.

For the molecule B3, the results for the “relative fluorescence (rf)” value in series [1] and in [2] were 20.7 LAU/mm^2 and less than 2.5 LAU/mm^2, respectively.

For B4, the “relative fluorescence (rf)” value was more than 10 LAU/mm^2 in series [1], less than 5 LAU/mm^2 in series [3], 3 LAU/mm^2 with GvpA fragment A1-22 and 12.5 LAU/mm^2 in series [4].

B5: the “relative fluorescence (rf)” value with GvpA fragment A20-47, with GvpA fragment A1-43 and in the series with GvpA fragment A44-76 was not above 0.48 LAU/mm^2 in each case.

For the molecule B6, the “relative fluorescence (rf)” value is more than 7.5 LAU/mm^2 in series [3], 18 LAU/mm^2 in series [2], more than 18 LAU/mm^2 in series [5] and less than 5 LAU/mm^2 in series [4].

B7: the “relative fluorescence (rf)” value with GvpA fragment A20-47 and with GvpA fragment A44-76 was not above 0.48 LAU/mm^2 throughout.

As for B8, the “relative fluorescence (rf)” value in series [2] is less than 2.5 LAU/mm^2; in series [5], 10.1 LAU/mm^2; in the series with GvpA fragment A1-22 it was 3.57 LAU/mm^2.
